Two substances from US20040071656A1, “Modulation of heat-shock-protein-based immunotherapies” (priority 2001, published 2004) can be followed below.

The assay deals with T1, exoplasmic domain of human CD40 (GST-CD40) (Homo sapiens, UniProt P25942).
T1 construct: The cDNA for the exoplasmic domain of CD40 (amino acids 20-212); made in house; host or cells: E. coli, pGEX-2T
Nature of the assay: GST-CD40 binding and competition assay with recombinant Hsp70 and its domains. The method, then:
For binding assays with recombinant Hsp70 and its domains, 3 μM His6-Hsp70 or its His6-tagged domains were incubated with 2 mM ATP, 2 mM ADP or 2 mM ADP and 28 μM peptide C in 50 μl binding buffer (10 mM MOPS/KOH, pH 7.2, 150 mM KCl and 3 mM MgCl2) for 30 min at 37° C. In competition experiments binding was probed with either a 10-fold excess of Hsp70, the two domains, or DnaK, or with a 5-fold excess of Hip or Bag 1 for 10 min at 0° C. To this end, Hsp70, N70, C70 and DnaK were preincubated with ADP, ATP and peptide C as described above. For comparison of CD40 binding of Hsp70 and its N-terminal domain, Hsp70 was preincubated in the presence or absence (mock treatment) of a 30-fold molar excess of peptide C. 3 μM of GST or GST-CD40 was added to the samples and incubated for 20 min at 16° C. For titration of peptide C, 5- to 50-fold excess of peptide C (15-150 μM) was added to the preincubation of Hsp70. Thereafter the samples were combined with 20 μl of 1% BSA-treated Glutathione Sepharose 4 Fast Flow and incubated in the presence of 2 mM DTT for another 20 min at 16° C. Unbound proteins were removed by washing the beads three times with 1 ml PBS, and immobilized proteins eluted with 30 μl elution buffer for 20 min at 22° C. 10 μl of the eluates were subjected to SDS-PAGE and analyzed by immunoblotting using a Penta-His-antibody (Quiagen). Blot signals were quantified by Quantity One (Biorad).
Details for FIG. 3. Binding of Hsp70 to CD40 is direct and depends on ADP. A. Hela-cell lysates were incubated with GST (control), or GST-CD40 in the amounts indicated. Thereafter samples were affinity purified on glutathione-Sepharose as outlined in Experimental Procedures, subjected to SDS-PAGE and analyzed by immunoblotting with antibodies directed against Hsc70 and Hsp70 (upper lanes), and against Hsp90 (lower lanes). B. Human recombinant His6-tagged Hsp70 was incubated with ATP, ADP, or an excess of peptide C, followed by addition of GST-CD40 or GST alone. After affinity purification samples were analyzed by immunoblotting as described in A, using antibodies directed against the His6-tag. C. Recombinant human His6-tagged Hsp70 was incubated with peptide C, either in the presence or absence of ADP. The reactions were then incubated with ANA1-cell lysates as described in Experimental Procedures. Protein bound to Hsp70 was analyzed by affinity purification on Ni-NTA-agarose and immunoblotting with antibodies directed against CD40.
Details for FIG. 4. Hsp70 binding to CD40 is mediated by the N-terminal ATPase domain and is competed by Hip. A. Human His6-tagged Hsp70, its N- or C-terminal domains, or recombinant bacterial DnaK was incubated either with GST-CD40, or with GST. B. Recombinant DnaK was incubated with ATP, ADP, or an excess of peptide C, followed by addition of GST-CD40 or GST alone. C. His6-tagged N-terminal domain of Hsp70 (N70) was incubated in the presence of ATP or ADP, followed by incubation with a 10-fold molar excess of Hsp70 in the presence of ADP or ATP. D: Recombinant human His6-tagged Hsp70 protein was incubated with a 5-fold molar excess of either recombinant Hip protein or Bag-1, and with GST-CD40 or GST as a control. Bound protein was analyzed after affinity purification on glutathione-Sepharose by immunoblotting with an antibody directed against the N-terminal His6-tags or with an antibody directed against DnaK.
Details for FIG. 5. Peptide substrate stimulates Hsp70 binding to CD40. A. His6-tagged Hsp70 was incubated with increasing concentrations of peptide C as indicated in the Figure, and binding to GST-CD40 analyzed by immunoblotting with antibodies directed against the His6-tag. The lower panel is a quantitation of the data. B. Equivalent concentrations (3 μM) of His6-tagged Hsp70 (in the presence of a 30-fold molar excess of peptide C) or His6-tagged N70 was incubated with GST-CD40, and bound protein was analyzed as described above.

T1 sequence (P25942 20-212): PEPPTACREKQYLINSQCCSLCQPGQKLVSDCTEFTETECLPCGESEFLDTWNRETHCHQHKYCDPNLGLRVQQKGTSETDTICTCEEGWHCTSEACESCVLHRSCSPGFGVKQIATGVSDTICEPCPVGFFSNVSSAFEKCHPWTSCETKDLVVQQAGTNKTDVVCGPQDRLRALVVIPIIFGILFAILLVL

Take “Hsp70: Recombinant human heat shock protein 70, expressed and purified as His-tagged protein”: under “3 μM His6-Hsp70, 2 mM ADP”, the “Hsp70 binding to CD40 in the presence of ADP” value was “only seen in the presence of ADP”. Further, the “Hsp70 binding to CD40 in the presence of ATP” value (3 μM His6-Hsp70, 2 mM ATP) is “barely detectable”.

Regarding “N70: Recombinant N-terminal ATPase domain of human Hsp70, residues 5-381 (SEQ ID NO: 1)”, the “binding efficiency to CD40, substrate-saturated Hsp70 versus N-terminal domain” value (3 μM each, ADP states, Hsp70 with 30-fold molar excess of peptide C) is given as “bound to CD40 with similar efficiencies”. Under “ADP versus ATP”, the “direct binding to CD40 (GST-CD40 pull down), nucleotide dependence” value is recorded as “bound to CD40 in the presence of ADP but not ATP”. For the same substance, the “competition for the binding of full-length Hsp70 to CD40” value (ADP, 5-fold molar excess of competitor) is given as “efficiently competed”.
